Here are results for 2 molecules from patent publication US20140342037A1, “NOVEL PREBIOTICS” (DSM IP ASSETS B.V., priority 2007, published 2014).

The conditions of data set [1]: cited from earlier work.
Data set [2] concerns κ-casein in milk and GMP-protein in whey. The data set is described as follows: Liberation of free sialic acid from milk and whey by sialidase (RP-HPLC, DMB labelling). Type of data set: biochemical. Conditions: milk and whey incubated with sialidase ZJW 0.4 U/ml at room temperature (20-21° C.). The source says:
Free sialic acid can be analyzed by means of reverse-phase HPLC, using fluorescence detection with excitation at 310 nm and emission 448 nm after labelling with DMB compound. This method was recently described in literature (M. J. Martin et al Anal. Bional. Chem., 2007, 387, 2943-29-49) and allowed fast and accurate determination of free sialic contents in samples.
Milk was reconstituted by using NILAC low heat skim milk powder (NIZO, The Netherlands); whey was obtained from a local cheddar making facility. The milk and whey samples were treated as follows: milk and whey was incubated separately with sialidase ZJW (0.4 U/ml) at room temperature (20-21° C.) and the reaction was terminated at different moments of time by heating the samples in water bath at 95° C. for 5 minutes. A series of several sialidase ZJW concentrations and incubation times were performed. The samples used for HPLC analysis need to be free from proteins. Therefore, samples were filtered with a Nanosep ultra filtration Eppendorff (10 KD) using centrifugation for 15 minutes at 14000 g. After centrifugation, the free protein supernatant was collected and diluted 100 times with milliQ water in order to measure the sialic acid in a proper range of concentrations (measuring range using RP HPLC method is 5 fmol-5 nmol of sialic acid). […]

Data set [3] can be described thus: Proteolytic (endo-protease) activity on substrates ZAAXpNA. Type of data set: biochemical. The settings on record: purified enzyme preparation.

Consider `CC(=O)N[C@H]1[C@H]([C@H](O)[C@H](O)CO)OC(O)(C(=O)O)C[C@@H]1O` (stereo partly shown) [Sialic acids, N-acetylneuraminic acid], for which the pKa result in data set [1] is on record as “around 2.2”.

B1: sialidase ZJW: secreted fungal sialidase from Penicillium chrysogenum (SEQ ID NO: 3), overexpressed in Aspergillus niger (protein, listed as Penicillium chrysogenum)
chain: MLSSLMYLARECSILRAISLCAILAVATPAASASVTAKHTLATNGKGLFPQYRIVALASLGNGVLLASYDGRPDGGDSPSPNSILQRRSTDGGKTWGNPTYIARGQPASSTLQQYGFSDPSYVVDSGTGKVFNFHVFSKNQGFLNSEIGNDDTDLNIVSAEVSVSTDGGLSWTTDPDHESSLPPVASADVANVGGITGMFASSGEGIQLKYGKHAGRLVQQFLGKVIQSDGSKVSQAYSVYSDDGGAIWKMGKVIGTGMDENKVVELSNGNLMLNSRPSDGSGYRKVATSTDGGETWSTPASETQLPDPGNNGAITRMYPDAAHGSANAKILLFTNANSKTSRSNGTIRYSCDDGKTWSSGAVFQSGSMSYSTVTALGDDRFGIFYEGDSNDLVYIEVSKDFIGVSC
Regarding B1, the “free sialic acid levels (concentration)” value in data set [2] (after 4 hours) is given as “approximately 220 mg/L”. Besides, in data set [2] (after 20 hours of incubation), the levels of free sialic acid worked out at 250 mg/L. In data set [3], the “proteolytic activity on a series of substrates ZAAXpNA” value is listed as “does not show proteolytic activity”.
